According to article PMC4072508, “Genome-Wide Prediction and Validation of Peptides That Bind Human Prosurvival Bcl-2 Proteins” (PLoS Computational Biology, 2014):

Molecular target: T1, Mcl-1, Q07820
T1 chain: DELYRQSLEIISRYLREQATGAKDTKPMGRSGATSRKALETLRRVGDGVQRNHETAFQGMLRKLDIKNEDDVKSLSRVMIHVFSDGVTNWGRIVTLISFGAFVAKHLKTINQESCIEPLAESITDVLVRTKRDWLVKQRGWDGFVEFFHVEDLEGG
Experiment: peptide SPOT array, c-Myc-tagged receptor at 1 uM or 100 nM, anti-c-Myc-Cy3

Binder	SPOT signal as a fraction of Bim BH3's signal on the same receptor and array
LRVSTKIGSCMKSVLEVMGIGRSFEE	0.04
VILADPDGHEICFVGDEAFRELSKMD [GLOD4]	0.01
RCELQICGLADADAGEYLCVCGQERT [OBSCN]	0.01
ERAISCMGQIDCNLGDNLGSDLPNTL	0.01
TLHFNQRGTWDASGSDDLKVVVWDWV [DCAF8]	0.02
NDDTPWIARTLDNLLDELTAILSAPA [GBP6]	0.04
SKFVILSAHKDVFIGDTLSRQAKAAD [BCAR1]	0.02
GLFSATSGVDLKYVADTFGQEVRPVS [DDX7]	0.02
LRVSTKIGSCDKSVGEVMGIGRSFEE	0.02
RGAMLSLATGDAHSGSDLSLLVPEIE [FAM115A]	0.04
KKCQDMIMTEDTNAGDDVVVFYNDKA [ITPR3]	0.01
ISSLDLLPYGDRYIAKVLKNSIHEKF [IQGAP2]	0.34
NKSLTTLGLVISSLADQAAGKGKSKF [KIF13A]	0.18
RAKASSLSEEDKHFADGLETDGTLQK [DSN1]	0.04
ERAISCMGQIICNLGDNLGSDLPNTL	0.01
HGTSSRIGSSMKSVGEVMAIGRTFEE [CPS1]	0.02
AVLCVECGYKYRFFLEDAEIAARELN [MSH3]	0.02

Next, values leading:

SPOT signal as a fraction of Bim BH3's signal on the same receptor and array	Binder
0.01	VFDDLRGSVSLSWVGDSTGVILVLTT
0.05	IQENVDISTVYQIFLDEVLGSGQFGI [PRKD3]
0.085	VLSRIEAGRSLKSVLDEFGISKSTFY [TIGD7]
0.53	SRQPRDFGDSLARGGKGFLRGVVGGV [VPS13C]
0.12	NKTMTQLSSTLARCLKDILGFAVMFF [PKD2L1]
0.02	VFDDLRGSVSDSWVGDSTGVILVLTT
0.05	AIKWDPTGNLLASCLDDMTLKIWSMK [TBL1XR1]
0.02	HPRKESQVRQLAWVGDGVWVSIRLDS [SPAG9]

Molecular target: T2, Bfl-1, Q16548
T2 chain: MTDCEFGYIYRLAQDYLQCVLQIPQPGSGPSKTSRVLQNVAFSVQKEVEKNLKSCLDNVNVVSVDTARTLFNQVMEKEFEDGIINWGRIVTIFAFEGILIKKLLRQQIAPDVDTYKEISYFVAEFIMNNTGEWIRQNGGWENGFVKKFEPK
Experiment: as above

Binder	SPOT signal as a fraction of Bim BH3's signal on the same receptor and array
KQMKEDGACLFRAVADQVYGDQDMHE	0.0533
MEMYQPSAVVLQCGADSLSGDRLGCF [HDAC2]	0.03
NDDTPWIARTLDNLLDELTAILSAPA [GBP6]	0.04
ISSLDLLPYGDRYIAKVLKNSIHEKF [IQGAP2]	0.51
THFLDEEVKLIKKMGDHLTNLHRLGG [FTL]	0.04
SWFIQSLCAMLKQYLDKLEFMHILTR [CASP3]	0.21
RAKASSLSEEDKHFADGLETDGTLQK [DSN1]	0.03

Second part, the binder after the results:

SPOT signal as a fraction of Bim BH3's signal on the same receptor and array	Binder
0.05	IQENVDISTVYQIFLDEVLGSGQFGI [PRKD3]
0.0533	KQMKEDGACLDRAVADQVYGDQDMHE
0.0567	KQMKEDGACLFRAVLDQVYGDQDMHE

What follows are binders tested against Bcl-xL, Q07817 in the same assay as above.
Chain of Bcl-xL, Q07817 (Q07817 1-209): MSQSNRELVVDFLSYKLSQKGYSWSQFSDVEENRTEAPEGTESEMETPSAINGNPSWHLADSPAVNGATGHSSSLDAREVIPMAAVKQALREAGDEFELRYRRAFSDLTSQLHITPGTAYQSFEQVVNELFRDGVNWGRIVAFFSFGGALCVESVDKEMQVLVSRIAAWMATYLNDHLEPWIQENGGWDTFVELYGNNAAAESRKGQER

Binder	SPOT signal as a fraction of Bim BH3's signal on the same receptor and array
LRVSTKIGSCMKSVLEVMGIGRSFEE	0.04
VILADPDGHEICFVGDEAFRELSKMD [GLOD4]	0.02
RCELQICGLADADAGEYLCVCGQERT [OBSCN]	0.01
ERAISCMGQIDCNLGDNLGSDLPNTL	0.01
TLHFNQRGTWDASGSDDLKVVVWDWV [DCAF8]	0.02
NDDTPWIARTLDNLLDELTAILSAPA [GBP6]	0.05
SKFVILSAHKDVFIGDTLSRQAKAAD [BCAR1]	0.01
GLFSATSGVDLKYVADTFGQEVRPVS [DDX7]	0.02
LRVSTKIGSCDKSVGEVMGIGRSFEE	0.02
RGAMLSLATGDAHSGSDLSLLVPEIE [FAM115A]	0.06
KKCQDMIMTEDTNAGDDVVVFYNDKA [ITPR3]	0.02
ISSLDLLPYGDRYIAKVLKNSIHEKF [IQGAP2]	0.64
NKSLTTLGLVISSLADQAAGKGKSKF [KIF13A]	0.4
SWFIQSLCAMLKQYLDKLEFMHILTR [CASP3]	0.27
RAKASSLSEEDKHFADGLETDGTLQK [DSN1]	0.06
ERAISCMGQIICNLGDNLGSDLPNTL	0.01
HGTSSRIGSSMKSVGEVMAIGRTFEE [CPS1]	0.02
AVLCVECGYKYRFFLEDAEIAARELN [MSH3]	0.02

Further lines, results first:

SPOT signal as a fraction of Bim BH3's signal on the same receptor and array	Binder
0.02	VFDDLRGSVSLSWVGDSTGVILVLTT
0.08	IQENVDISTVYQIFLDEVLGSGQFGI [PRKD3]
0.08	VLSRIEAGRSLKSVLDEFGISKSTFY [TIGD7]
1	SRQPRDFGDSLARGGKGFLRGVVGGV [VPS13C]
0.19	NKTMTQLSSTLARCLKDILGFAVMFF [PKD2L1]
0.02	VFDDLRGSVSDSWVGDSTGVILVLTT
0.07	AIKWDPTGNLLASCLDDMTLKIWSMK [TBL1XR1]
0.02	HPRKESQVRQLAWVGDGVWVSIRLDS [SPAG9]
